According to PMC6076269, “Structure and nucleic acid binding properties of KOW domains 4 and 6–7 of human transcription elongation factor DSIF”:

B1: dsDNA1 (dsDNA)
DNA 1: CTTATTGAATTA
DNA 2: TAATTCAATAAG
B2: dsDNA2 (dsDNA)
DNA 1: GAAAATTGGGTAAG
DNA 2: CTTACCCAATTTTC

Molecular target: hSpt5 KOW4 (S522-G647) (Homo sapiens, UniProt O00267 522-647)
Assay: fluorescence anisotropy; 50 nM nucleic acid; Fluorescence anisotropy: 25 mM Tris/HCl pH 7.0, 50 mM NaCl, 25 C (buffer printed for duplex annealing, named fluorescence buffer); NMR with Rpb4/7 (Fig 7): 50 mM Na phosphate pH 7.0, 50 mM NaCl, 1 mM DTT, 298 K
Settings: protein: recombinant, tags: His6-GB1 removed by TEV
[1] = label: 5' 6-FAM on strand 1, blunt

| Binder | Kd [1] [µM] | Kd (label: 5' 6-FAM) [µM] |
| --- | --- | --- |
| B1 | 20.1 ± 0.4 |  |
| B2 | 41.2 ± 9 |  |
| CTTATTGAATTA (ssDNA) [ssDNA1] |  | 12.2 ± 0.6 |
| GGCGGUAGCGUG (ssRNA) [ssRNA] |  | 39.5 ± 7.4 |
| GAAAATTGGGTAAG (ssDNA) [ssDNA2] |  | 24.5 ± 3.2 |
